B1: PRPH (parent)
chain: DEIEFLKKLHEEELRDLQVSVESQ
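Also: lentivirally expressed fusions sorted by FACS into six bins by GFP to DsRed ratio, PSI derived from sequencing read proportions per bin multiplied by bin number.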

In the series the parent is B1. The experiment in a line: protein stability index of a GFP-peptide fusion (GPS, HEK-293T) (PSI 1-6); higher = more stable. As to conditions: c terminus: a fixed tail appended.
For the variant DEIEFDKKLHEEELRDLQVSVESQ [L6D], the protein stability index turned out to be 5.56. On to DEIEFHKKLHEEELRDLQVSVESQ [L6H], for which the protein stability index was 5.21. As for DEIEFIKKLHEEELRDLQVSVESQ [L6I], the protein stability index was determined as 4.97. Then DEIEFMKKLHEEELRDLQVSVESQ [L6M], with 4.89; and DEIEFPKKLHEEELRDLQVSVESQ [L6P], with 5.33; and DEIEFNKKLHEEELRDLQVSVESQ [L6N], with 5.61. As for DEIEFAKKLHEEELRDLQVSVESQ [L6A], the protein stability index came to 5.48. Then DEIEFCKKLHEEELRDLQVSVESQ [L6C], with 5.09; and DEIEFKKKLHEEELRDLQVSVESQ [L6K], with 4.99; and DEIEFQKKLHEEELRDLQVSVESQ [L6Q], with 5.54.

On to DEIEFFKKLHEEELRDLQVSVESQ [L6F], for which the protein stability index came out at 4.42.

Regarding DEIEFEKKLHEEELRDLQVSVESQ [L6E], the protein stability index is 5.18.

Turning to DEIEFGKKLHEEELRDLQVSVESQ [L6G], the protein stability index amounted to 5.07. Regarding DEIEFRKKLHEEELRDLQVSVESQ [L6R], the protein stability index amounted to 4.91.

As to SEIEFLKKLHEEELRDLQVSVESQ [D1S], the protein stability index is 4.64.

Take YEIEFLKKLHEEELRDLQVSVESQ [D1Y]: the protein stability index came out at 4.32. Then TEIEFLKKLHEEELRDLQVSVESQ [D1T], with 4.71; and WEIEFLKKLHEEELRDLQVSVESQ [D1W], with 3.97.

Regarding VEIEFLKKLHEEELRDLQVSVESQ [D1V], the protein stability index turned out to be 4.31. DEEEFLKKLHEEELRDLQVSVESQ [I3E]: the protein stability index was 5.43.

Take DEREFLKKLHEEELRDLQVSVESQ [I3R]: the protein stability index was found to be 5.28. Then DECEFLKKLHEEELRDLQVSVESQ [I3C], with 5.09. As for DEPEFLKKLHEEELRDLQVSVESQ [I3P], the protein stability index came to 4.94.

Take DEHEFLKKLHEEELRDLQVSVESQ [I3H]: the protein stability index was found to be 5.24. Then DETEFLKKLHEEELRDLQVSVESQ [I3T], with 5.25; and DEQEFLKKLHEEELRDLQVSVESQ [I3Q], with 5.08; and DENEFLKKLHEEELRDLQVSVESQ [I3N], with 5.46. Turning to DEWEFLKKLHEEELRDLQVSVESQ [I3W], the protein stability index is 4.41.

For DEVEFLKKLHEEELRDLQVSVESQ [I3V], the protein stability index is 4.83. Then DEDEFLKKLHEEELRDLQVSVESQ [I3D], with 5.68; and DEFEFLKKLHEEELRDLQVSVESQ [I3F], with 4.88; and DESEFLKKLHEEELRDLQVSVESQ [I3S], with 5.42. Regarding DEAEFLKKLHEEELRDLQVSVESQ [I3A], the protein stability index worked out at 5.36. Then DEMEFLKKLHEEELRDLQVSVESQ [I3M], with 4.96. Then DEGEFLKKLHEEELRDLQVSVESQ [I3G], with 5.05; and DEYEFLKKLHEEELRDLQVSVESQ [I3Y], with 4.8.

For the variant DEKEFLKKLHEEELRDLQVSVESQ [I3K], the protein stability index amounted to 5.18. Then DELEFLKKLHEEELRDLQVSVESQ [I3L], with 4.84; and DEIECLKKLHEEELRDLQVSVESQ [F5C], with 5.15; and DEIEQLKKLHEEELRDLQVSVESQ [F5Q], with 5.41. Take DEIEWLKKLHEEELRDLQVSVESQ [F5W]: the protein stability index came out at 4.42.

DEIEYLKKLHEEELRDLQVSVESQ [F5Y]: the protein stability index turned out to be 4.58. Then DEIEPLKKLHEEELRDLQVSVESQ [F5P], with 5.22; and DEIESLKKLHEEELRDLQVSVESQ [F5S], with 5.07; and DEIERLKKLHEEELRDLQVSVESQ [F5R], with 4.79. For the variant DEIEDLKKLHEEELRDLQVSVESQ [F5D], the protein stability index is 5.27. As to DEIEKLKKLHEEELRDLQVSVESQ [F5K], the protein stability index came out at 4.73. In the case of DEIENLKKLHEEELRDLQVSVESQ [F5N], the protein stability index is 4.9. With DEIEALKKLHEEELRDLQVSVESQ [F5A], the protein stability index is 4.69. Consider DEIELLKKLHEEELRDLQVSVESQ [F5L], for which the protein stability index was found to be 5.18.

DEIEILKKLHEEELRDLQVSVESQ [F5I]: the protein stability index is 4.92. Then DEIEHLKKLHEEELRDLQVSVESQ [F5H], with 4.85. Then DEIEMLKKLHEEELRDLQVSVESQ [F5M], with 5; and DEIEGLKKLHEEELRDLQVSVESQ [F5G], with 5.36; and DEIEELKKLHEEELRDLQVSVESQ [F5E], with 5.47.

For the variant DEIEVLKKLHEEELRDLQVSVESQ [F5V], the protein stability index amounted to 4.95.

Take DEIETLKKLHEEELRDLQVSVESQ [F5T]: the protein stability index came out at 5.1. Then DEIHFLKKLHEEELRDLQVSVESQ [E4H], with 4.55. DEILFLKKLHEEELRDLQVSVESQ [E4L]: the protein stability index is 4.15. For the variant DEIDFLKKLHEEELRDLQVSVESQ [E4D], the protein stability index was found to be 4.93.

For the variant DEIMFLKKLHEEELRDLQVSVESQ [E4M], the protein stability index is 4.53. Take DEIFFLKKLHEEELRDLQVSVESQ [E4F]: the protein stability index was 3.96. Then DEIYFLKKLHEEELRDLQVSVESQ [E4Y], with 3.9; and DEIIFLKKLHEEELRDLQVSVESQ [E4I], with 4.12; and DEIAFLKKLHEEELRDLQVSVESQ [E4A], with 4.36. In the case of DEIGFLKKLHEEELRDLQVSVESQ [E4G], the protein stability index is 4.57.

As for DEIPFLKKLHEEELRDLQVSVESQ [E4P], the protein stability index came out at 4.62. Then DEINFLKKLHEEELRDLQVSVESQ [E4N], with 4.91. Take DEITFLKKLHEEELRDLQVSVESQ [E4T]: the protein stability index is 4.16. For the variant DEICFLKKLHEEELRDLQVSVESQ [E4C], the protein stability index was 3.93.

On to DEIQFLKKLHEEELRDLQVSVESQ [E4Q], for which the protein stability index worked out at 4.34.

On to DEIKFLKKLHEEELRDLQVSVESQ [E4K], for which the protein stability index was found to be 4.18. Then DEIVFLKKLHEEELRDLQVSVESQ [E4V], with 4.21; and DEIWFLKKLHEEELRDLQVSVESQ [E4W], with 3.18; and DEIRFLKKLHEEELRDLQVSVESQ [E4R], with 3.98. In the case of DEISFLKKLHEEELRDLQVSVESQ [E4S], the protein stability index worked out at 4.93. Then DKIEFLKKLHEEELRDLQVSVESQ [E2K], with 3.94; and DSIEFLKKLHEEELRDLQVSVESQ [E2S], with 3.65. On to DYIEFLKKLHEEELRDLQVSVESQ [E2Y], for which the protein stability index came to 1.91. Regarding DFIEFLKKLHEEELRDLQVSVESQ [E2F], the protein stability index was determined as 2.13. Then DPIEFLKKLHEEELRDLQVSVESQ [E2P], with 4.13.

On to DCIEFLKKLHEEELRDLQVSVESQ [E2C], for which the protein stability index came to 2.04.

In the case of DHIEFLKKLHEEELRDLQVSVESQ [E2H], the protein stability index stood at 4.08. In the case of DDIEFLKKLHEEELRDLQVSVESQ [E2D], the protein stability index was determined as 5.01. Then DVIEFLKKLHEEELRDLQVSVESQ [E2V], with 2; and DQIEFLKKLHEEELRDLQVSVESQ [E2Q], with 3.73.

In the case of DIIEFLKKLHEEELRDLQVSVESQ [E2I], the protein stability index turned out to be 2.1. Then DNIEFLKKLHEEELRDLQVSVESQ [E2N], with 4.67; and DMIEFLKKLHEEELRDLQVSVESQ [E2M], with 2.05; and DAIEFLKKLHEEELRDLQVSVESQ [E2A], with 2.22.

With DGIEFLKKLHEEELRDLQVSVESQ [E2G], the protein stability index worked out at 3.56. Then DWIEFLKKLHEEELRDLQVSVESQ [E2W], with 1.69; and DRIEFLKKLHEEELRDLQVSVESQ [E2R], with 4.39. Turning to DTIEFLKKLHEEELRDLQVSVESQ [E2T], the protein stability index turned out to be 2.98.

For the origin of these results see the supplement of paper PMC10567573.
